According to paper PMC7653511 (Journal of immunology (Baltimore, Md. : 1950), 2020):

What was measured:
[1] = molecular target: HLA-E*01:01 heavy chain with human β2-microglobulin (human); assay: HPLC size exclusion chromatography peptide competition binding assay
[2] = molecular target: HLA-E*01:03 heavy chain with human β2-microglobulin (human); assay: as above
[3] = molecular target: HLA-E*01:01 heavy chain with human β2-microglobulin (human); assay: HPLC size exclusion chromatograph
[4] = molecular target: HLA-E*01:03 heavy chain with human β2-microglobulin (human); assay: HPLC size exclusion chromatograph
HLA-E = settings: no reference given; cited from earlier work
[5] = Aggregation of the proteins with norleucine fluorescent standard peptide; assay type: physicochemical; settings: norleucine vs methionine in position 2 of fluorescent standard peptide
HLA-E*01:01 = HLA-E*01:01 (Homo sapiens, UniProt P13747, G128R); assay: UV-mediated peptide exchange binding assay; settings: s/p ratio, at least two independent experiments
HLA-E*01:03 = HLA-E*01:03 (Homo sapiens, UniProt P13747); assay: UV-mediated peptide exchange binding assay; settings: s/p ratio, at least two independent experiments
Qa-1^b = Qa-1^b (Mus musculus, UniProt P06339); assay: UV-mediated peptide exchange binding assay; parameters: species or system mice; settings: s/p ratio, at least two independent experiments
Mamu-E = assay type: binding, rhesus macaques; settings: s/p ratio, at least two independent experiments

Row | Substance | Effect of alanine substitution on binding (HLA-E*01:01) | Effect of alanine substitution on binding (HLA-E*01:03) | Effect of alanine substitution on binding (Qa-1^b) | Effect of alanine substitution on binding (Mamu-E) | further results
1 | Qdm (peptide) |  |  |  |  | IC50 [1]: < 100 µM; IC50 [2]: < 100 µM
2 | VL9 (peptide) |  |  |  |  | IC50 [3]: < 100 µM; IC50 [4]: < 100 µM
3 | VLAPRTLLL [pCMV] |  |  |  |  | Known binding to HLA-E of control peptides (HLA-E): high binding capacity to HLA-E
4 | VXAPCTLLL |  |  |  |  | Unspecific aggregation of the proteins [5]: reduced unspecific aggregation of the proteins
5 | pCMV P2-Ala: pCMV with Ala in position 2 (VAAPRTLLL) | considerable loss of binding | considerable loss of binding | considerable loss of binding | considerable loss of binding | 
6 | pCMV P7-Ala: pCMV with Ala in position 7 (VLAPRTALL) | complete or almost complete loss of binding | complete or almost complete loss of binding | complete or almost complete loss of binding | complete or almost complete loss of binding | 
7 | pCMV P9-Ala: pCMV with Ala in position 9 (VLAPRTLLA) | complete or almost complete loss of binding | complete or almost complete loss of binding | complete or almost complete loss of binding | complete or almost complete loss of binding | 
